Paper doi:10.1101/2025.03.09.641110 (bioRxiv, 2025)

Target: extracellular domain of human PD-1 (Programmed cell death protein 1) (Homo sapiens, UniProt Q15116)
Assay: SPR

extracellular domain of human PD-1 (Programmed cell death protein 1), sequence (Q15116 25-170): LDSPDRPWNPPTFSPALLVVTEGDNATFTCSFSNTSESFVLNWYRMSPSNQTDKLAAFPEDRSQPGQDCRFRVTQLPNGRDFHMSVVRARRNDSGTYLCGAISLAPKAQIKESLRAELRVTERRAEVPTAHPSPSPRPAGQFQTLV

Row | Binder | Kd
1 | ALX07xh-05 (direct CDR-grafted humanized ALX07) (antibody, V domains shown) VH: QVTLKESGPALVKPTQTLTLTCTFSGFSLSTSALGVGWIRQPPGKALEWLAHIWWNDVKRSNPALKGRLTISKDTSKNQVVLTMTNMDPVDTATYYCARSYGNHWYFDVWGQGTLVTVSS VL: DIVMTQSPDSLAVSLGERATINCKASQSVSNDVAWYQQKPGQPPKLLIYYAFTRYIGVPDRFSGSGSGTDFTLTISSLQAEDVAVYYCQQDYISPYTFGQGTKLEIK | 140 nM
2 | humanized ALX07 (CDR graft) with the S67Y back mutation in the light chain alone (antibody, V domains shown) VH: QVTLKESGPALVKPTQTLTLTCTFSGFSLSTSALGVGWIRQPPGKALEWLAHIWWNDVKRSNPALKGRLTISKDTSKNQVVLTMTNMDPVDTATYYCARSYGNHWYFDVWGQGTLVTVSS VL: DIVMTQSPDSLAVSLGERATINCKASQSVSNDVAWYQQKPGQPPKLLIYYAFTRYIGVPDRFSGSGYGTDFTLTISSLQAEDVAVYYCQQDYISPYTFGQGTKLEIK | 2.01 nM
3 | chimeric ALX07 (murine ALX07 variable regions, IgG4 chimeric antibody) (antibody, V domains shown) VH: QVTLKESGPGILQPSQTLSLTCSFSGFSLSTSALGVGWIRQPPGKGLVWLAHIWWNDVKRSNPALKGRLTISKDTSSSQVFLNIANVDTADTATYYCARSYGNHWYFDVWGAGTTVTVSS VL: SVVMTQTPKFLLVSAGDRVTIACKASQSVSNDVAWFQQKPGQSPKLLIYYAFTRYIGVPDRFTASGYGTDFTFTISTVQAEDLAIYFCQQDYISPYTFGGGTKLEIK | 1.31 nM
